Measurements reported in paper PMC10613254.

Each substance was assayed against bovine brain Arp2/3 complex (bovine) (UniProt P61157) (assay: ITC; cortactin constructs titrated into ATP-Arp2/3 complex; temperature and concentrations indicated only in Fig. 4d).

Sequence of Cort_(1-76), cortactin N-terminal acidic domain (NTA, residues 1-76) (Q60598 1-76): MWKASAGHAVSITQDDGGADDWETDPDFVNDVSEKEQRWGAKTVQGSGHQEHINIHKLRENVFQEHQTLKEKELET
Sequence of Cort_(1-33) (Q60598 1-33): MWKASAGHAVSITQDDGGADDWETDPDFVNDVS
Sequence of Cort_(18-76) (Q60598 18-76): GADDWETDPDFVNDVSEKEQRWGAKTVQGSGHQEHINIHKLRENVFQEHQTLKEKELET

stoichiometry N | Substance
1 | Cort_(1-76), cortactin N-terminal acidic domain (NTA, residues 1-76) (from UniProt Q60598 1-76) (domain or fragment)
1 | Cort_(18-76) (from UniProt Q60598 18-76) (domain or fragment)
1 | Cort_(1-33) (from UniProt Q60598 1-33) (domain or fragment)
